Data: patent US20130274441A1 (University of California, published 2013)
Changes are numbered by the printed parent chain.

How the values were obtained:
[1] = molecular target: the molecule itself; test: analytical ultracentrifugation c(s) distribution at 4.8 and 2.4 mg mL^-1 (FIG. 4); self-assembly
[2] = molecular target: the molecule itself; test: Assembly column; screening of labeled lysates; self-assembly
[3] = molecular target: the molecule itself; test: Assembly column; self-assembly
[4] = molecular target: the molecule itself; test: analytical SEC of purified protein; self-assembly

B1: O3-33 with C-terminal (His)6 tag (designed binder)
chain: MSQAIGILELTSIAAGMELGDAMLKSANVDLLVSKTISPGKFLLMLGGDIGAIQQAIETGTSQAGELLVDSLVLANIHPSVLPAISGLNSVDKRQAVGIVETWSVAACISAADRAVKGSNVTLVRVHMAFGIGGKCYMVVAGDVSDVALAVTVASSSAGAYGLLVYASLIPRPHEAMWRQMVEGLEHHHHHH
notes: eight trimers self-assemble through the designed interface to a 24-subunit octahedral cage; Derived from PDB 3N79 with 9 mutations; also called 03-33; octahedral design
B1: binds [1].

B2: O3-33, construct with peptide tag for fluorescent labeling, in labeled E. coli lysate (designed binder)
chain: MSQAIGILELTSIAAGMELGDAMLKSANVDLLVSKTISPGKFLLMLGGDIGAIQQAIETGTSQAGELLVDSLVLANIHPSVLPAISGLNSVDKRQAVGIVETWSVAACISAADRAVKGSNVTLVRVHMAFGIGGKCYMVVAGDVSDVALAVTVASSSAGAYGLLVYASLIPRPHEAMWRQMVEG
modifications: peptide tag labeled with CoA-488 by AcpS
notes: also called octahedral design
B2: binds [2].

B3: T3-08, construct with peptide tag for fluorescent labeling, in labeled E. coli lysate (designed binder)
chain: MTEKEKMLAEKWYDANFDQTLINERLRAKVICFALNHTNPSATLKRKVLIDALFQTTTDNVSISIPFDTDYGWNVKLGKNVYVNTNCYFMDGGQITIGDNVFIGPNCGFYTATHPLNFHHRNEGFEKAGPIHIGSNTWFGGHVAVLPGVTIGEGSVIGAGSVVTKDIPPHSLAVGNPCKVVRKIDNDLPSETLNDETIK
modifications: peptide tag labeled with CoA-488 by AcpS
notes: also called tetrahedral design
B3: binds [2].

B4: T3-10 with C-terminal (His)6 tag (designed binder)
chain: MTEKEKMLAEKWYDANFDQTLINERLRAKVICFALNHTNPVATMMRKVLIDALFQTTTDNVSISIPFDTDYGWNVKLGKNVYVNTNCYFMDGGQITIGDNVFIGPNCGFYTATHPLNFHHRNEGFEKAGPIHIGSNTWFGGHVAVLPGVTIGEGSVIGAGSVVTKDIPPHSLAVGNPCKVVRKIDNDLPSETLNDETIKLEHHHHHH
notes: Variant of T3-08 with 3 further mutations
B4: binds [3].

B5: T3-08 with C-terminal (His)6 tag (designed binder)
chain: B4 chain with V41S, M44L, M45K
notes: four trimers assemble to a 12-subunit tetrahedral cage; Derived from PDB 3FTT with 8 mutations; also called tetrahedral design
B5: binds [4].
